Patent US20240043533A1 (NGM BIOPHARMACEUTICALS, published 2024)

What was measured:
[1] = biological target: T1, extracellular domain of human ILT3 (huILT3-ECD) (human, UniProt Q8NHJ6 22-259); experiment: SPR (Biacore), antibody captured via anti-Fc on CM5 chip, soluble ILT3-ECD injected
T1 construct: also called human ILT3-ECD
Method: (§1) The binding affinities of anti-ILT3 antibodies to human ILT3 and cyno ILT3 were measured using a Biacore system (GE Healthcare LifeSciences). Briefly, anti-Fc antibody (Sigma-Aldrich) was immobilized on all four flow cells of a CM5 chip using amine coupling reagents (GE Healthcare LifeSciences). Antibodies were captured on flow cells 2, 3, and 4 using flow cell 1 as a reference. Concentrations ranging from 3.3-10 nM of human or cyno ILT3-ECD were injected at a flow rate of 50 μL/min at 37° C. Kinetic data were collected over time and fit using the simultaneous global fit equation to yield affinity constants (KD values) for each antibody.
(§2) The binding affinities of various Hz48A6 and Hz45G10 antibodies to human ILT3 and cyno ILT3 were also determined using a Biacore system as described herein. Humanized antibodies comprising various combinations of a heavy chain variable region and a light chain variable region and a human Fc domain were tested, and compared with the binding affinity of the parental chimeric antibody (48A6 chimera comprising mouse 48A6 heavy and light variable regions and a human Fc domain, or 45G10 chimera comprising mouse 45G10 heavy and light variable regions and a human Fc domain).

[2] = biological target: T2, extracellular domain of cyno ILT3 (cynoILT3-ECD) (cynomolgus monkey); experiment: as above
T2 chain: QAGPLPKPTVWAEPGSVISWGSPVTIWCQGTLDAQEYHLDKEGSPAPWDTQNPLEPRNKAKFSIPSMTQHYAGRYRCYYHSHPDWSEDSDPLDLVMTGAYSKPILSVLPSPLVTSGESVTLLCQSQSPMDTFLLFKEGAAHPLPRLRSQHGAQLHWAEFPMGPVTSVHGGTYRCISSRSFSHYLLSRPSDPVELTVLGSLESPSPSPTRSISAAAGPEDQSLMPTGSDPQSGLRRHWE
Method: as §1, §2

B1: 45G10 chimera (antibody, V domains shown)
VH: EVQLVESGGGLVKPGGSLKLSCAASGFTFSDYGMHWVRQAPEKGLEWVAYIFSGSSTIYYADTVKGRFTISRDNAKNTLFLQMTSLRSEDTAMYYCARADGRGAMDYWGQGTSVTVSS
VL: DVQMTQTTSSLSASLGDRVTISCRASQDISKFLNWYQQKPDGTVTLLIYYTSRLHSGVPSRFSGSGSGTDYSLTISNLDQEDIATYFCQQGNTLPWTFGGGTKLEIK
notes: also called parental chimeric 45G10
**Q.** What does the source list for B1?
**A.** Kd [1]: 0.14 nM; koff [1]: 0.00034 s⁻¹; kon [1]: 2.3e+06 M⁻¹ s⁻¹; Kd [2]: 37 nM; koff [2]: 0.015 s⁻¹; kon [2]: 410000 M⁻¹ s⁻¹

B2: Hz45G10 A2/A4 (antibody, V domains shown)
VH: EVQLVESGGGLVQPGGSLRLSCAASGFTFSDYGMHWVRQAPGKGLEWVAYIFSGSSTIYYADTVKGRFTISRDNAKNSLYLQMNSLRAEDTAVYYCARADGRGAMDYWGQGTTVTVSS
VL: DIQMTQSPSSLSASVGDRVTITCRASQDISKFLNWYQQKPGKAPKLLIYYTSRLHSGVPSRFSGSGSGTDFTFTISSLQPEDIATYFCQQGNTLPWTFGGGTKLEIK
**Q.** How did the Kd [1] turn out when B2 was run?
**A.** The Kd was 0.2 nM.

**Q.** What about the koff [1] of the same binder?
**A.** Its koff is 0.00028 s⁻¹.

**Q.** What about the kon [1] of the same binder?
**A.** Its kon is 1.4e+06 M⁻¹ s⁻¹.

**Q.** And the Kd [2]?
**A.** Its Kd is 113 nM.

**Q.** What about the koff [2] of the same binder?
**A.** Its koff is 0.02 s⁻¹.

**Q.** And the kon [2]?
**A.** Its kon is 190000 M⁻¹ s⁻¹.

B3: Hz48A6 C1/C2 (antibody, V domains shown)
VH: EVQLVESGGGLVQPGGSLRLSCAASGFTFSSYGMSWVRQAPGKGLEWVATISSGGTYTFYPDSVKGRFTISRDNSKNTLYLQMNSLRAEDTAVYYCARRGWLLHYYAMDYWGQGTLVTVSS
VL: DIQLTQSPSFLSASVGDRVTITCRPSESVDSFGNSFMHWFQQKPGKAPKLLIYLSSKLESGVPSRFSGSGSGTEFTLTISSLQPEDFATYYCQQHNEDPFTFGQGTKVEIK
**Q.** B3 was tested. Which Kd [1] did it give?
**A.** The Kd was 0.26 nM.

**Q.** What about the koff [1] of the same binder?
**A.** Its koff is 0.000705 s⁻¹.

**Q.** What about the kon [1] of the same binder?
**A.** Its kon is 2.72e+06 M⁻¹ s⁻¹.

**Q.** What about the Kd [2] of the same binder?
**A.** Its Kd is 770 nM.

**Q.** And the koff [2]?
**A.** The koff was 0.088 s⁻¹.

**Q.** What about the kon [2] of the same binder?
**A.** Its kon is 114000 M⁻¹ s⁻¹.

B4: Hz48A6 B1/C2 (antibody, V domains shown)
VH: EVQLVESGGGLMQPGGSLRLSCAASGFTFSSYGMSWVRQAPGKGLEWVATISSGGTYTFYPDSVKGRFTISRDNAKNSLYLQMNSLRAEDTAVYYCARRGWLLHYYAMDYWGQGTSVTVSS
VL: DIQLTQSPSFLSASVGDRVTITCRPSESVDSFGNSFMHWFQQKPGKAPKLLIYLSSKLESGVPSRFSGSGSGTEFTLTISSLQPEDFATYYCQQHNEDPFTFGQGTKVEIK
**Q.** What does the source list for B4?
**A.** Kd [1]: 0.25 nM; koff [1]: 0.000764 s⁻¹; kon [1]: 3.05e+06 M⁻¹ s⁻¹; Kd [2]: 531 nM; koff [2]: 0.092 s⁻¹; kon [2]: 174000 M⁻¹ s⁻¹

B5: Hz48A6 C0/C2 (antibody, V domains shown)
VH: EVQLVESGGGLVQPGGSLRLSCAASGFTFSSYGMSWVRQAPGKGLEWVGTISSGGTYTFYPDSVKGRFTISRDNSKNTLYLQMNSLRAEDTAVYYCARRGWLLHYYAMDYWGQGTLVTVSS
VL: DIQLTQSPSFLSASVGDRVTITCRPSESVDSFGNSFMHWFQQKPGKAPKLLIYLSSKLESGVPSRFSGSGSGTEFTLTISSLQPEDFATYYCQQHNEDPFTFGQGTKVEIK
**Q.** For B5, which Kd [1] is on record?
**A.** Its Kd is 0.16 nM.

**Q.** What about the koff [1] of the same binder?
**A.** The koff was 0.000541 s⁻¹.

**Q.** And the kon [1]?
**A.** Its kon is 3.45e+06 M⁻¹ s⁻¹.

**Q.** What about the Kd [2] of the same binder?
**A.** Its Kd is 177 nM.

**Q.** And the koff [2]?
**A.** The koff was 0.058 s⁻¹.

**Q.** What about the kon [2] of the same binder?
**A.** Its kon is 327000 M⁻¹ s⁻¹.

B6: Hz48A6 C2/C2 (antibody, V domains shown)
VH: EVQLVESGGGLMQPGGSLRLSCAASGFTFSSYGMSWVRQAPGKGLEWVATISSGGTYTFYPDSVKGRFTISRDNSKNTLYLQMNSLRAEDTAVYYCARRGWLLHYYAMDYWGQGTLVTVSS
VL: DIQLTQSPSFLSASVGDRVTITCRPSESVDSFGNSFMHWFQQKPGKAPKLLIYLSSKLESGVPSRFSGSGSGTEFTLTISSLQPEDFATYYCQQHNEDPFTFGQGTKVEIK
**Q.** B6 was tested. Which Kd [1] did it give?
**A.** The Kd was 0.24 nM.

**Q.** And the koff [1]?
**A.** Its koff is 0.000752 s⁻¹.

**Q.** And the kon [1]?
**A.** Its kon is 3.06e+06 M⁻¹ s⁻¹.

**Q.** What about the Kd [2] of the same binder?
**A.** Its Kd is 377 nM.

**Q.** What about the koff [2] of the same binder?
**A.** Its koff is 0.082 s⁻¹.

**Q.** What about the kon [2] of the same binder?
**A.** The kon was 217000 M⁻¹ s⁻¹.

B7: Hz48A6 B0/C2 (antibody, V domains shown)
VH: EVQLVESGGGLVQPGGSLRLSCAASGFTFSSYGMSWVRQAPGKGLEWVATISSGGTYTFYPDSVKGRFTISRDNAKNSLYLQMNSLRAEDTAVYYCARRGWLLHYYAMDYWGQGTSVTVSS
VL: DIQLTQSPSFLSASVGDRVTITCRPSESVDSFGNSFMHWFQQKPGKAPKLLIYLSSKLESGVPSRFSGSGSGTEFTLTISSLQPEDFATYYCQQHNEDPFTFGQGTKVEIK
**Q.** What does the source list for B7?
**A.** Kd [1]: 0.28 nM; koff [1]: 0.000784 s⁻¹; kon [1]: 2.8e+06 M⁻¹ s⁻¹; Kd [2]: 455 nM; koff [2]: 0.097 s⁻¹; kon [2]: 213000 M⁻¹ s⁻¹
